Measurements from PMC7005674.

Each sequence was assayed against T1, Rap1-Halo (Saccharomyces cerevisiae) (UniProt P11938) (assay: EMSA). Details: EMSA (DNA): 50 mM HEPES pH 7.5, 130 mM KCl, 10% glycerol, 0.005% Tween 20, 2 mM Trolox, 3.2% glucose, 50 ng/ul poly-d(I-C), 10 min, room temperature; smTIRF ….
T1 sequence: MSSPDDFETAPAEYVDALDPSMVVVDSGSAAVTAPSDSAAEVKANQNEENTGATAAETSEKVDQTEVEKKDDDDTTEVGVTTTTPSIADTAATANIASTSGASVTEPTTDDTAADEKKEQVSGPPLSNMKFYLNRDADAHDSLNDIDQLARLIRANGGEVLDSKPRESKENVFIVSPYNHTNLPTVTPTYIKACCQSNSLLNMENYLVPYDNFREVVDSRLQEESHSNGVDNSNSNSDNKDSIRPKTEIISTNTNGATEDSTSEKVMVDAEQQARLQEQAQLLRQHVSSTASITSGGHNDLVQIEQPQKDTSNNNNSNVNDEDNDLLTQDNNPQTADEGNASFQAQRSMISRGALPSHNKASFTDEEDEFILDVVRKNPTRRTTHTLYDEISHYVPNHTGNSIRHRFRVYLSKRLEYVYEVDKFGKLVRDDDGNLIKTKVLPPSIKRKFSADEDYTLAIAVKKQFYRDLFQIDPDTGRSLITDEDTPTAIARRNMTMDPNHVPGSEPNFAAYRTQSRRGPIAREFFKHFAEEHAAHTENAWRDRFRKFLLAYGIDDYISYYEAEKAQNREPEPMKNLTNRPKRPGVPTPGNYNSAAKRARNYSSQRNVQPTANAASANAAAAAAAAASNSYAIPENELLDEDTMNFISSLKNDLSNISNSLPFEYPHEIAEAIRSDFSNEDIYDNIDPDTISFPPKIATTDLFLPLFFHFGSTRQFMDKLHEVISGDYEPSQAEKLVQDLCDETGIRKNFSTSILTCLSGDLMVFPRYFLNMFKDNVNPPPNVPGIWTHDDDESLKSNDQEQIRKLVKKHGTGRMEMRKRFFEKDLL

Sequence | Kd [nM]
CACACTGTGCCAAGTACTTACGCGGCCGCCCTGGAGAATCCCGGTGCCGAGGCCGTACATCTGTGCACCGACAGCTCTAGCACCGCTTAAACGCACGTACGCGCTGTCCCCCGCGTTTTAACCGCCAAGGGGATTACTCCCTAGTCTCCAGGCACGTGTCAGATACTGCAGAGATCTCTAGATCCATGGAGTACTTGGTCTCAAACC (double strand) [MN S1+6] | 62.7
CACACTGTGCCAAGTACTTACGCGGCCGCCCTGGAGAATCCCGGTGCCGAGGTACATCTGTGCACCGTAGACAGCTCTAGCACCGCTTAAACGCACGTACGCGCTGTCCCCCGCGTTTTAACCGCCAAGGGGATTACTCCCTAGTCTCCAGGCACGTGTCAGATACTGCAGAGATCTCTAGATCCATGGAGTACTTGGTCTCAAACC (double strand) [MN S1+3] | 48.5
CACACTGTGCCAAGTACTTACGCGGCCGCCCTGGAGAATCCCGGTGCCGTACATCTGTGCACCGTCGTAGACAGCTCTAGCACCGCTTAAACGCACGTACGCGCTGTCCCCCGCGTTTTAACCGCCAAGGGGATTACTCCCTAGTCTCCAGGCACGTGTCAGATACTGCAGAGATCTCTAGATCCATGGAGTACTTGGTCTCAAACC (double strand) [MN S1] | 76.4
